Reference: CN105330739A

Key:
huVEGF 165 (human) [1] = experiment: indirect ELISA on coated huVEGF, antibody at 16 ng/ml
huVEGF 165 (human) [2] = experiment: indirect ELISA on coated huVEGF, antibody at 0.64 ng/ml
huVEGF 165 (human) [3] = experiment: indirect ELISA on coated huVEGF, antibody at 0.00512 ng/ml
huVEGF 165 (human) [4] = experiment: indirect ELISA on coated huVEGF, antibody at 3.2 ng/ml
huVEGF 165 (human) [5] = experiment: indirect ELISA on coated huVEGF, antibody at 80 ng/ml
huVEGF 165 (human) [6] = experiment: indirect ELISA on coated huVEGF, antibody at 0.0256 ng/ml
huVEGF 165 (human) [7] = experiment: indirect ELISA, huVEGF coated at 0.5 ug/ml, four-parameter fit
huVEGF 165 (human) [8] = experiment: indirect ELISA on coated huVEGF, antibody at 400 ng/ml
huVEGF 165 (human) [9] = experiment: indirect ELISA on coated huVEGF, antibody at 0.128 ng/ml

Sequence of huVEGF 165 (human) (chain, as listed by the source, form in doubt): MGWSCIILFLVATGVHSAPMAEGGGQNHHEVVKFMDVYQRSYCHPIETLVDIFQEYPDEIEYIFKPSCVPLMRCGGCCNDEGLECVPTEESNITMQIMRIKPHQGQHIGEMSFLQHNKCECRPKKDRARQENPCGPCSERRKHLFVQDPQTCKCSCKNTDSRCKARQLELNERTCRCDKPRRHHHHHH

OD450 复孔1 (huVEGF 165 (human) [1]): 3 OD450
OD450 复孔2 (huVEGF 165 (human) [1]): 2.9 OD450
OD平均 (huVEGF 165 (human) [1]): 2.95 OD450
OD450 复孔1 (huVEGF 165 (human) [2]): 0.572 OD450
OD450 复孔2 (huVEGF 165 (human) [2]): 0.614 OD450
OD平均 (huVEGF 165 (human) [2]): 0.59 OD450
OD450 复孔1 (huVEGF 165 (human) [3]): 0.115 OD450
OD450 复孔2 (huVEGF 165 (human) [3]): 0.118 OD450
OD平均 (huVEGF 165 (human) [3]): 0.12 OD450
OD450 复孔1 (huVEGF 165 (human) [4]): 1.83 OD450
OD450 复孔2 (huVEGF 165 (human) [4]): 1.92 OD450
OD平均 (huVEGF 165 (human) [4]): 1.87 OD450
OD450 复孔1 (huVEGF 165 (human) [5]): 3.33 OD450
OD450 复孔2 (huVEGF 165 (human) [5]): 3.31 OD450
OD平均 (huVEGF 165 (human) [5]): 3.32 OD450
OD450 复孔1 (huVEGF 165 (human) [6]): 0.132 OD450
OD450 复孔2 (huVEGF 165 (human) [6]): 0.135 OD450
OD平均 (huVEGF 165 (human) [6]): 0.13 OD450
EC50 (huVEGF 165 (human) [7]): 0.02 nM
OD450 复孔1 (huVEGF 165 (human) [8]): 3.53 OD450
OD450 复孔2 (huVEGF 165 (human) [8]): 3.44 OD450
OD平均 (huVEGF 165 (human) [8]): 3.49 OD450
OD450 复孔1 (huVEGF 165 (human) [9]): 0.208 OD450
OD450 复孔2 (huVEGF 165 (human) [9]): 0.214 OD450
OD平均 (huVEGF 165 (human) [9]): 0.21 OD450
B1: NevegiMab抗体 (antibody, V domains shown)
VH: EVKLQESGPELKKPGETVKISCKASGYTFTNYGLNWVKQAPGKGLKWMGWINTYTGEPTYADDFKGRFAFSLETSASTAYLQINNLKNEDMATYFCAKYGITYEWYFDVWGAGTTVTVSS
VL: DIVLTQSTSSLSASLGDRVTISCRASQDISNSLNWYQQKPNGTVILLIYYTSRLHSGVPSRFSGSGSGAVYSLTISDLEQEDIATYFCQQGNTFPWTFGGGTKLEIKR
